This is an account of results in paper PMC5454392, “Selective BET bromodomain inhibition as an antifungal therapeutic strategy” (Nature Communications, 2017).

For assay [1], the target named is T1, CaBdf1 BD2 (GST-tagged, wild-type) (Candida albicans (strain SC5314 / ATCC …, UniProt Q5A4W8)).
T1 chain: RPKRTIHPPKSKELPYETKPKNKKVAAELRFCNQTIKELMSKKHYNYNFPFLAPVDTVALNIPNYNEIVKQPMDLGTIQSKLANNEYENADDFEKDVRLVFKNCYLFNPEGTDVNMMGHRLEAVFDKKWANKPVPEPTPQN
The assay is described as follows: histone peptide array (Active Motif MODified), 1 uM GST-tagged bromodomain, anti-GST detection, normalized mean intensity.

In assay [2] the target is T2, CaBdf1 BD1 (GST-tagged, wild-type) (Candida albicans (strain SC5314 / ATCC …, UniProt Q5A4W8)).
T2 chain: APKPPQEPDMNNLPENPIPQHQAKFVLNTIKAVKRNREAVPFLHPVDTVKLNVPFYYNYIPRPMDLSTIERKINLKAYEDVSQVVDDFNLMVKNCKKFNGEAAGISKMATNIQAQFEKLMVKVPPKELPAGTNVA
The description is as above.

Square brackets hold non-standard residues; d marks the D form. Ends that are not written are not given here. Arg(Me2a) = CN(C)C(=N)NCCC[C@H](N)C(=O)O; Lys(Me3) = C[N+](C)(C)CCCC[C@H](N)C(=O)O; Arg(Me2s) = CN=C(NC)NCCC[C@H](N)C(=O)O; Lys(Me2) = CN(C)CCCC[C@H](N)C(=O)O; pS = N[C@@H](COP(=O)(O)O)C(=O)O; Lys(Me) = CNCCCC[C@H](N)C(=O)O; me2a = not defined here

In the case of ARTKQTARKSTGGKAPRKQ (A R T K Q T A R Kac pS T G G K A P R K Q), the results for the binding score in assay [1] and in assay [2] were 0.00407 and 0.00435, respectively.

Turning to PRKQLATKAAR(Me2s)K(Me)SAPATGG, the binding score in assay [1] worked out at 0.00296; in assay [2] it was 0.00435.

Consider A[Arg(Me2a)]T[Lys(Me3)]QTA[Arg(Me2a)][Lys(Me)]STGGKAPRKQ, for which the binding score in assay [1] was 0.00851; in assay [2], 0.00435.

On to ARTKQTA[Arg(Me2s)]K(Ac)[pS]TGGKAPRKQ, for which the binding score came to 0.00296 in assay [1] and 0.00363 in assay [2].

For the molecule ARTKQTA[Arg(Me2a)]K(Ac)[pS]TGGKAPRKQ, the binding score in assay [1] was 0.00407; in assay [2], 0.00399.

Regarding AR(me2a)TK(Ac)QTAR(me2a)K(Me)STGGKAPRKQ (reading uncertain), the binding score in assay [1] came to 0.00888; in assay [2], 0.00761.

Consider PRKQLATKAARK(Me)[pS]APATGG, for which the binding score was determined as 0.00333 in assay [1] and 0.0029 in assay [2].

With ARTKQTARKSTGGKAPRKQ (A R T Kac Q T A Rme2a Kme3 S T G G K A P R K Q), the binding score in assay [1] is 0.00592; in assay [2], 0.0087.

Take PRKQLATKAAR(Me2s)K(Me3)[pS]APATGG: the binding score in assay [1] turned out to be 0.00629; in assay [2] it was 0.00109.

With PRKQLATKAAR(Me2s)K(Ac)SAPATGG, the figures for the binding score in assay [1] and in assay [2] were 0.00814 and 0.0123, respectively.

ARTKQTA[Arg(Me2a)]K(Me)[pS]TGGKAPRKQ: the binding score in assay [1] stood at 0.00407; in assay [2] it was 0.00326.

SGRGKQGGKARAK(Ac)AKSRSS: the binding score came to 0.0141 in assay [1] and 0.0943 in assay [2].

For ARTKQTARKSTGGKAPRKQ (A Rme2a T Kac Q T A Rme2s Kme1 S T G G K A P R K Q), the binding score in assay [1] was found to be 0.00296; in assay [2] it was 0.00471.

Regarding SGRGKGGKGLGKGGAKRHR (S G R G K G G Kac G L G Kac G G A Kac R H R), the figures for the binding score in assay [1] and in assay [2] were 0.16 and 0.201, respectively.

Turning to [pS]GRGK(Ac)QGGKARAKAKSRSS, the values for the binding score in assay [1] and in assay [2] were 0.0215 and 0.0156, respectively.

As to R[Arg(Me2s)]K[Lys(Me)]K(Ac)R[Arg(Me2a)][Lys(Me2)]K[Lys(Me3)]R[Lys(Me)][Arg(Me2s)]KK(Ac)RK [background 02], the binding score is 0.00444 in assay [1] and 0.00906 in assay [2].

With SGRGKGGKGLGKGGAKRHR (S G R G K G G K G L G K G G A Kac R H R), the results for the binding score in assay [1] and in assay [2] were 0.00296 and 0.0149, respectively.

For ARTKQTARKSTGGKAPRKQ (A Rme2a T Kac Q T A Rme2a K S T G G K A P R K Q), the binding score in assay [1] stood at 0.00592; in assay [2], 0.00399.

Consider ARTKQTARKSTGGKAPRKQ (A Rme2s pT Kme2 Q T A R K S T G G K A P R K Q), for which the binding score in assay [1] was found to be 0.00333; in assay [2], 0.00363.

B1: H4 1-19 (peptide)
chain: SGRGKGGKGLGKGGAKRHR
modifications: not fully specified; histone peptide post-translational modifications (acetyl, methyl, phospho, citrulline) listed in columns 4-7 and embedded in the sequence text; N-terminus free or acetylated in column 8
On to B1, for which the binding score in assay [1] is 0.00999; in assay [2], 0.00725.

For the molecule ARTKQTARKSTGGKAPRKQ (A Rme2s T Kac Q T A Rme2s Kac S T G G K A P R K Q), the binding score was determined as 0.00629 in assay [1] and 0.041 in assay [2].

As to ARTKQTARKSTGGKAPRKQ (A R T Kac Q T A Rme2s Kme3 S T G G K A P R K Q), the binding score in assay [1] is 0.00407; in assay [2], 0.00689.

For A[Arg(Me2a)]T[Lys(Me2)]QTA[Arg(Me2s)][Lys(Me2)]STGGKAPRKQ, the figures for the binding score in assay [1] and in assay [2] were 0.00666 and 0.0029, respectively.

Turning to SGRGKGGKGLGKGGAKRHR (pS G Rme2s G K G G K G L G K G G A K R H R), the values for the binding score in assay [1] and in assay [2] were 0.00333 and 0.00508, respectively.

Consider ARTKQTARKSTGGKAPRKQ (A R T Kme2 Q T A Rme2a Kme1 S T G G K A P R K Q), for which the binding score in assay [1] worked out at 0.00666; in assay [2], 0.0363.

PRKQLATKAARKSAPATGG (not fully specified): the results for the binding score in assay [1] and in assay [2] were 0.00111 and 0.00798, respectively.

Regarding SGRGK(Ac)QGGK(Ac)ARAKAKSRSS, the binding score in assay [1] stood at 0.0133; in assay [2], 0.0283.

In the case of [pS]GRGK(Ac)QGGK(Ac)ARAK(Ac)AKSRSS, the values for the binding score in assay [1] and in assay [2] were 0.00888 and 0.0515, respectively.

For ARTKQTARKSTGGKAPRKQ (A Rme2a T Kme2 Q T A Rme2s Kac S T G G K A P R K Q), the results for the binding score in assay [1] and in assay [2] were 0.00333 and 0.0435, respectively.

As to PRKQLATKAARK(Me3)[pS]APATGG, the binding score in assay [1] was 0.00074; in assay [2], 0.0029.

For SGRGKGGKGLGKGGAKRHR (S G Rme2a G Kac G G Kac G L G K G G A K R H R), the binding score in assay [1] was determined as 0.0411; in assay [2], 0.0558.

For ARTKQTARKSTGGKAPRKQ (A Rme2a T Kme3 Q T A Rme2a Kac S T G G K A P R K Q), the binding score in assay [1] turned out to be 0.00999; in assay [2], 0.0392.

For the molecule RKSAPATGGVKKPHRYRPG (R K S A P A T G G V Kme3 K P H R Y R P G) [H3 26-45], the figures for the binding score in assay [1] and in assay [2] were 0.00777 and 0.00761, respectively.

In the case of ARTKQTARKSTGGKAPRKQ (A Rme2a T Kme2 Q T A Rme2s Kme1 S T G G K A P R K Q), the binding score in assay [1] was 0.0037; in assay [2], 0.00399.
